Data taken from patent US20190375831A1 (US Dept. of Health and Human Services, published 2019).
Residue numbers refer to the chain shown, from its start.

Columns and labels:
[1] = target: T1, recombinant PfCSP (rPfCSP, residues 21-375) (Plasmodium falciparum, UniProt P19597 21-375); assay: ITC, first binding event
T1 construct: also called recombinant wild type PfCSP; not shown: C-terminal Avi-tag, HRV3C-processing tag and His-purification tag

[2] = target: T2, PfCSP on P. falciparum sporozoites (PfSPZ) (Plasmodium falciparum, UniProt P19597 19-374); assay: ELISA on coated PfSPZ, OD405nm
[3] = target: T1, recombinant PfCSP (rPfCSP, residues …); assay: ITC, second binding event
[4] = target: T1, recombinant PfCSP (rPfCSP, residues …); assay: biolayer interferometry, biotinylated CSP on the sensor, whole IgG in solution; apparent KD
[5] = target: T1, recombinant PfCSP (rPfCSP, residues …); assay: ELISA on coated rPfCSP, OD405nm
[6] = target: T1, recombinant PfCSP (rPfCSP, residues …); assay: ITC, mAb injected into rPfCSP, one set of sites (Kd = […] nM)
[7] = target: T1, recombinant PfCSP (rPfCSP, residues …); assay: ITC, mAb injected into rPfCSP, one set of sites (Kd = […] nM)
[8] = target: T2, PfCSP on P. falciparum sporozoites …; assay: immunofluorescence assay on PfSPZ
[9] = target: T1, recombinant PfCSP (rPfCSP, residues …); assay: ITC, CIS43 Fab injected into rPfCSP, two sets of sites, first set
[10] = target: T1, recombinant PfCSP (rPfCSP, residues …); assay: ITC, CIS43 Fab injected into rPfCSP, two sets of sites, second set
[11] = target: T1, recombinant PfCSP (rPfCSP, residues …); assay: ITC, mAb injected into rPfCSP, one set of sites (Kd = 51 nM)
[12] = target: T1, recombinant PfCSP (rPfCSP, residues …); assay: ITC, one binding event

T1 sequence (P19597 21-375): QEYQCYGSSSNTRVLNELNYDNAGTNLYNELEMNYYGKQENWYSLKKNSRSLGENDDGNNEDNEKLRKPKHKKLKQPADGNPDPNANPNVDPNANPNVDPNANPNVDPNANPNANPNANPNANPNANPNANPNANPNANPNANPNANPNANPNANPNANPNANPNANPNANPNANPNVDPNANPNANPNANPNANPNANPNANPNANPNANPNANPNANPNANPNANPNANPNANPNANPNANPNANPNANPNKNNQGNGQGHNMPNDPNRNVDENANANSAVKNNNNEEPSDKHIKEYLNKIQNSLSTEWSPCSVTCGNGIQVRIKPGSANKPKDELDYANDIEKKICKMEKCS
T2 sequence (P19597 19-374 limits assumed): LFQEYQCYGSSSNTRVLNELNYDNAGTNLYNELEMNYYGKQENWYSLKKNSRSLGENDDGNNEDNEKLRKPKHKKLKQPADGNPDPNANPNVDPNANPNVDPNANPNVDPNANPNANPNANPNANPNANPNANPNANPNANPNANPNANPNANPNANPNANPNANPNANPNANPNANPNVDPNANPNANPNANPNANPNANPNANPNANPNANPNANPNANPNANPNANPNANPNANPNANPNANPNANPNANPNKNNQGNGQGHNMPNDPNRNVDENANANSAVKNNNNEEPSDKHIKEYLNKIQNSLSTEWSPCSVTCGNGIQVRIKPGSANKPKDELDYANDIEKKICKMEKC

B1: mAb CIS34 (antibody, human IgG1, kappa, V domains shown)
VH: QVQLVESGGGVVQPGRSLRLSCAASGFTFSSYGIHWVRQAPGKGLEWVAVIWYDGSKKYYGDSVKGRFTISRDNSKNTLYLQMNSLRVEDTAVYYCARAVIAATGTRGYWFDPWGQGTLVTVSS
VL: DIIMTQSPVSLSASVGDRVTITCRASQSISSHLNWYQQKPGKAPKLLIYAASSLQSGVPSRFSGSGSGTDFTLTISSLQPEDFATYSCQQTYRGFTFAPGTKVDIKR
For B1, the Kd [1] was 31 nM, the binding result [2] was “binds” and the Kd [3] was 80 nM. For the same binder, the Kd [4] was 1.5 nM and the “EC50 (read off the curve)” value [5] was ~3 ng/mL.

B2: CIS06 (antibody, V domains shown)
VH: QVQLVQSGPEVKKPGTSVKVSCKASGFTFSSSAVQWVRQARGQRLEWIGWIVVGSGKTKYAQNFQQRVTITRDMSTSTAYLELSTLRSEDTAVYYCAAVVNWNDESGFDPWGQGTLVTVSS
VL: DIQMTQSPSSLSAFVGDRVTITCRASQSIGTYLNWYQQKVGQAPKLLIYTASSLRSGVPSRFSGSGSGTDFTLTITSLQPEDFATYYCQQSYSTYTFGQGTKLEIK
notes: also called mAb CIS06
With B2 the “EC50 (read off the curve)” value [5] was ~100 ng/mL.

B3: mAb10 (antibody, human IgG1, kappa, V domains shown)
VH: EVQLVESGGGVVQPGRSLRLSCEASGFTFSTYGMHWVRQAPGKGLEWVAIIWHDGSKKYHADSVRGRFTISRDNSKNTLYLQMNSLRAEDTAVYFCARVGNYGGDWGAGFDYWGQGTLVTVSS
VL: DIQMTQSPSFLSASVGDRVTIACRASQSISSWLAWYQQKPGKAPKLLIYHASSLESGVPSRFSGSASGTEFALTISSLQPDDFATYYCQQYSSYWTFGQGTKVEIKR
With B3 the “-TΔS” value [6] was 22.7 kcal/mol and the ΔH [6] was -33 kcal/mol.

B4: mAb CIS23 (antibody, V domains shown)
VH: EVQLVESGGGVVQPGRSLRLSCAASGFTFSSYGMYWVRQAPGKGLEWVALISHDGSNKFYADSVKGRFTISRDNSKNTLYLQMNSLRAEDTAVYYCAKDLGYSSSWGYFDYWGQGTLVTVSS
VL: EIVLTQSPATLSLSPGERATLSCRASQSVSSYLAWYQQKPGQAPRLLIYDASNRATGIPARFSGSGSGTDFTLTISSLEPEDFAVYYCQQRSNWYTFGQGTKLEIK
With B4 the “-TΔS” value [7] was 13.1 kcal/mol, the ΔG [7] was -10.4 kcal/mol and the ΔH [7] was -23.5 kcal/mol. B4: binds [2].

B5: CIS04 (antibody, V domains shown)
VH: QVQLVQSGAEVKKPGASVKVSCKASGYTFTSYAIHWVRQAPGQRLEWMGWIKAGNGDTRYSQKFQGRVTITRDTSATTAYMELSSLRSEDTAVYYCGLLTVLTPDDAFDIWGQGTMVTVSS
VL: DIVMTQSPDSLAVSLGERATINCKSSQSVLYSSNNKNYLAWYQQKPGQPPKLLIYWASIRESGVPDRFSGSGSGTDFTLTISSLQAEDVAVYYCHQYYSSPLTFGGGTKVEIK
notes: also called mAb CIS04
B5: binds [8].

B6: CIS43 Fab (Fab, V domains shown)
VH: B5 VH with D57N, G66D, A76T, G97A
VL: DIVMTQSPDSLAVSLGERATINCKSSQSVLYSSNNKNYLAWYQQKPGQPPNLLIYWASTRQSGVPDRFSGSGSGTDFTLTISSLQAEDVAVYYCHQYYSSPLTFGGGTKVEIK
In the case of B6, the “-TΔS1” value [9] is reported as 12 kcal/mol, the Kd [9] is reported as 16 nM and the ΔG1 [9] is reported as -10.6 kcal/mol. For the same binder, the ΔH1 [9] was -22.6 kcal/mol, the “-TΔS2” value [10] was -4.3 kcal/mol and the Kd [10] was 250 nM. The ΔG2 [10] was -9 kcal/mol and the ΔH2 [10] was -4.7 kcal/mol.

B7: mAb CIS42 (antibody, V domains shown)
VH: QVQLVQSGSELKKPGASVKVSCKTSGYTFTTYAMNWVRQAPGQGLEWMGWINTNTGNPTYAPGFTGRFVFSFDTSVSTAYLQISSLKAEDTAVYYCARVYSYGVPFDYWGQGTLVTVSS
VL: QSVLTQPASVSGSPGQSITISCTATSSNVGSFNLVSWYQHHPGKAPKLIIHEVSKRPSGASNRFSGSKSGNTASLTISGLQAEDEADYYCCSYVGSDTWVFGGGTKLTVL
With B7 the “-TΔS” value [11] was 12.8 kcal/mol, the ΔG [11] was -9.9 kcal/mol and the ΔH [11] was -22.7 kcal/mol. The Kd [12] was 51 nM, the binding result [2] was “binds” and the Kd [4] was 0.76 nM. The “EC50 (read off the curve)” value [5] was ~5 ng/mL.
